# Where a SMILES comes first, the peptide text is derived from it. The star is where a group is joined. Cbz = O=C(OCc1ccccc1)*; CH2F = FC*
# Experiments:
# [1] = tested on: cardiac myocytes; experiment: Effect of PARP-1 inhibitor and caspase inhibitor on apoptosis of cardiac myocytes induced by recombinant eIF5A (RCP) (TUNEL); assay type: cell-based, rat; details: inhibitor added 1 hour before recombinant eIF5A (RCP), 3-aminobenzamide 2 mM, Z-VAD.fmk 100 μM, TUNEL at 72 hours
# [2] = tested on: cultured cardiac myocytes; experiment: Induction of apoptosis of cultured cardiac myocytes by recombinant eIF5A proteins (TUNEL / cardiac myosin double staining); assay type: cell-based, rat; details: recombinant protein 10 μg/mL
# [3] = Isoelectric point by two-dimensional gel electrophoresis and Western blotting; assay type: physicochemical; details: two-dimensional gel electrophoresis, tagged recombinant protein
# Description: Quail muscle cells were transfected with eIF5A-myc-His vector and myc- and His-tagged recombinant eIF5A protein was collected from the cytoplasm of the transfected cells. Similarly, quail muscle cells were trasfected with the eIF5A-FLAG-His vector, the cells were incubated in hypoxia/reoxygenation-conditioned PBS (RCP), and a FLAG- and His-tagged recombinant eIF5A protein was collected from the culture supernatant. The proteins were treated with Ni-NTA Purification System (Invitrogen), and after that gel filtration was performed with phosphate buffer containing 0.15 M NaCl (pH 7.4) using Superdex 200™ 10-300GL (GE Healthcare, 1.0×30 cm, bed capacity 24 mL) to purify the myc- and FLAG-tagged recombinant eIF5A proteins. The first dimensional isoelectric focusing was performed with Immobiline DryStrip (pH 4 to 7, GE Healthcare) which had been allowed to swell overnight with a sample dissolved in 7 M urea, 2 M thiourea, 4% CHAPS, 65 mM dithioerythritol [DTE], 2% IPG buffer pH 4 to 7 (GE Healthcare) and bromophenol blue [BPB]. The electrophoresis was performed at a voltage of 30 V for 7 hours, at 60V for 7 hours, at 60 to 200 V for 30 min, at 200 to 500 V for 30 min, at 500 to 1000 V for 30 min, at 1000 to 8000 V for 30 min, and at 8000 V for 2 hours (19.4 kVh in total). The second dimensional SDS-PAGE was performed with a gel (concentrated gel 4% acrylamide, 2.6% piperazine diacrylamide [PDA], separating gel 12% acrylamide, 2.6% PDA) and the electrophoresis was performed at 12 mA for 2 hours. The gel was transferred to a PVDF membrane, and then the myc- and FLAG-tagged recombinant eIF5A proteins were analyzed by Western blotting. First, the proteins were analyzed using anti-myc monoclonal antibody (Invitrogen), biotinylated anti-mouse IgG antibody and Vectastain ABC-AP Kit (Vector) and then detected with alkaline phosphatase and chemiluminescence. Then, the proteins were analyzed using anti-FLAG monoclonal antibody (M2, Sigma) and horseradish peroxidase (HRP)-labeled anti-mouse IgG antibody and detected with Konica Immunostain HRP-1000 Kit (Konica Corporation).
# (1) As thioredoxin has been known to act as antioxidant by reducing other proteins and play a protective role against oxidative stress-induced cell injury, eIF5A was considered to be a candidate of an apoptosis inducing humoral factor. eIF5A is the only protein known to contain a unique amino acid hypusine, which is formed post-translationally by two-steps of an enzymatic reaction. eIF5A has been known to be localized mainly in the cytoplasm under normal conditions where hypusinated eIF5A facilitates translation of mRNAs involved in cell proliferation. However, no study to date has reported that eIF5A can be released extracellularly and act as an apoptosis-inducing factor. To confirm that eIF5A is actually released from cardiac myocytes in response to hypoxia/reoxygenation and the released eIF5A can induce apoptosis of cardiac myocytes, quail muscle cells (CRL-1962, ATCC) were transfected with an expression vector containing the FLAG- and His-tagged human eIF5A gene, incubated with hypoxic PBS, and then incubated with normoxic PBS. The reoxygenation-conditioned PBS (RCP) was collected, concentrated, and purified using Ni-NTA Purification System (Invitrogen), and recombinant protein ([RCP] re-eIF5A) was extracted by gel filtration. (2) Similarly, recombinant human eIF5A ([cytosolic] re-eIF5A) was extracted from cytosolic fractions of the untreated transfected cells. (3) After these recombinant eIF5A proteins were separated by two-dimensional electrophoresis, the resultant was analyzed by Western blotting with anti-FLAG M2 mAb (Sigma) (FIG. 2b). […] Specifically, spots having higher pI values, such as hypusinated eIF5A (spots B and B′ in FIG. 2b), and spots having lower pI values, such as unhypusinated eIF5A (spots A and A′ in FIG. 2b) were identified. There was no detectable spots of deoxyhypusinated intermediate (references Taylor, C. A., et al. Exp. Cell Res. 313, 437-449). […]
compound,measurement,setting,value
NC(=O)c1cccc(N)c1 [3-aminobenzamide],inhibition at 2000 µM,"[1]; Rattus norvegicus, read-out: inhibition of apoptosis induction by recombinant eIF5A (RCP)",~30%
COC(=O)C[C@H](NC(=O)[C@H](C)NC(=O)[C@@H](NC(=O)OCc1ccccc1)C(C)C)C(=O)CF [Z-VAD.fmk] (Cbz-Val-Ala-Asp(OMe)-CH2F),inhibition of apoptosis induction by recombinant eIF5A (RCP),[1],~70%
cytosolic (mostly unhypusinated) eIF5A: recombinant human eIF5A extracted from cytosolic fractions of untreated transfected cells [reference compound],induction of apoptosis of cultured cardiac myocytes (TUNEL and cardiac myosin double staining),[2],almost no cardiac myocytes underwent apoptosis
"cytosolic hypusinated eIF5A: hypusinated form of conventionally known cytosolic eIF5A, spot B in two-dimensional electrophoresis [reference compound]",isoelectric point,[3],approx. 5.5
same,isoelectric point,[3]; listed as spot B,5.5
"cytosolic unhypusinated eIF5A: unhypusinated form of conventionally known cytosolic eIF5A, spot A in two-dimensional electrophoresis [reference compound]",isoelectric point,[3],approx. 5.4
same,isoelectric point,[3]; listed as spot A,5.4
recombinant mutant eIF5A (K50A) derived from RCP: K50A mutant eIF5A secreted into reoxygenation-conditioned PBS by transfected quail muscle cells,induction of apoptosis of cultured cardiac myocytes (TUNEL and cardiac myosin double staining),[2],only partially induced apoptosis
"secreted hypusinated eIF5A: hypusinated form of secreted eIF5A from RCP, spot B′",isoelectric point,[3],approx. 5.4
same,isoelectric point,[3]; listed as spot B′,5.4
"secreted unhypusinated eIF5: unhypusinated form of secreted eIF5A from RCP, spot A′",isoelectric point,[3],approx. 5.3
same,isoelectric point,[3]; listed as spot A′,5.3

# Reference: patent US8492521B2, “Oxidative stress responsive apoptosis inducing protein eIF5A” (priority 2008, dated 2013)
